Numbering of substitutions follows the chain as printed.
B1: SEQ ID NO 61 (designed binder)
chain: MLPAPKNLVVSRVTEDSARLSWRVESRTFDSFLIQYQESEKVGEAIVLTVPGSERSYDLTGLKPGTEYTVSIYGVVWDTRDNPISNPLSAIFTT
notes: FN3 domain
B2: SEQ ID NO 50 (designed binder)
chain: MLPAPKNLVVSRVTEDSARLSWTAPDAAFDSFVIEYREGAWYGEAIVLTVPGSERSYDLTGLKPGTEYFVDITGVKGGWWSDPLSAIFTT
notes: FN3 domain
B3: SEQ ID NO 33 (designed binder)
chain: MLPAPKNLVVSRVTEDSARLSWTAPDAAFDSFTIQYEELTTVGEAIYLRVPGSERSYDLTGLKPGTEYVVWIEGVKGGLRSNPLGAAFTT
notes: FN3 domain
B4: SEQ ID NO 36 (designed binder)
chain: MLPAPKNLVVSRVTEDSARLSWTAPDAAFDSFTITYIEWWENGEAIALSVPGSERSYDLTGLKPGTEYQVGIAGVKGGYKSYPLWALFTT
notes: FN3 domain
B5: SEQ ID NO 39 (designed binder)
chain: MLPAPKNLVVSRVTEDSARLSWTAPDAAFDSFDIDYREWWTLGEAIVLTVPGSERSYDLTGLKPGTEYYVNIQGVKGGLRSYPLSAIFTT
notes: FN3 domain
B6: SEQ ID NO 51 (designed binder)
chain: MLPAPKNLVVSRVTEDSARLSWTAPDAAFDSFFIKYIEWWADGEAIVLTVPGSERSYDLTGLKPGTEYLVEIYGVKGGKWSWPLSAIFTT
notes: FN3 domain
B7: SEQ ID NO 59 (designed binder)
chain: B6 chain with F33T, K35W, I37A, W40E, A41D, D42E, L69R, K79Y, W80P, W82K
notes: FN3 domain
B8: SEQ ID NO 52 (designed binder)
chain: B5 chain with D33K, D35S, R37Q, T41E, L42D, Y69W, Q73S, L79V, R80Q
notes: FN3 domain
B9: SEQ ID NO 41 (designed binder)
chain: MLPAPKNLVISRVTEDSARLSWTAPDAAFDSFFIYYIESYPAGEAIVLTVPGSERSYDLTGLKPGTEYWVGIDGVKGGRWSTPLSAIFTT
notes: FN3 domain
B10: SEQ ID NO 58 (designed binder)
chain: MLPAPKNLVVSRVTEDSARLSWTAPDAAFDSFTIWYAEADGWGEAIVLTVPGSERSYDLTGLKPGTEYFVDIYGVKGGYLSVPLSAIFTT
notes: FN3 domain
B11: SEQ ID NO 40 (designed binder)
chain: B10 chain with T33V, W35E, A37W, A39Y, D40V, W42H, F69S, D71G, Y79S, V82R
notes: FN3 domain

Target: T1, CD71 on SK-BR-3 cells (human, UniProt P02786 1-760)
Test: cell-based or functional assay

T1 sequence (P02786 whole entry): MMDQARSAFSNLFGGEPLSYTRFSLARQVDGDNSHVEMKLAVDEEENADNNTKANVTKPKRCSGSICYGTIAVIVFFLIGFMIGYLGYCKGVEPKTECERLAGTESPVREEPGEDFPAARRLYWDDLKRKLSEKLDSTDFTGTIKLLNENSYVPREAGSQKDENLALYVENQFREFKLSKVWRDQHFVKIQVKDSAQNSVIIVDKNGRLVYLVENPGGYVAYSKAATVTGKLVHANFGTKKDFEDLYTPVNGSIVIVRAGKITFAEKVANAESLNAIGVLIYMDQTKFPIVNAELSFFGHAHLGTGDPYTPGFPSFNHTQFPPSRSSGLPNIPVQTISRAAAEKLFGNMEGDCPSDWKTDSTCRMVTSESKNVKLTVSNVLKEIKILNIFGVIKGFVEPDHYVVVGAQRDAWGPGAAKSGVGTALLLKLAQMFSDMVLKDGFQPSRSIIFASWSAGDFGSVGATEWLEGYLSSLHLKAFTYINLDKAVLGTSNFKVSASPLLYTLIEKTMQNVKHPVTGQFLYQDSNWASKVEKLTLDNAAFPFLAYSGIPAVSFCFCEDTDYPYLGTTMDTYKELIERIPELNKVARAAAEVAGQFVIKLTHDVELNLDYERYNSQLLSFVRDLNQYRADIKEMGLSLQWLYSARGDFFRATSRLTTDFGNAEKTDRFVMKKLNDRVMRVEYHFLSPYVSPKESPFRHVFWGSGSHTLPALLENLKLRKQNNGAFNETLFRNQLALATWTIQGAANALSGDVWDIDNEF

| Binder | IC50, SKBR-3 cell viability, MMAF conjugate |
| --- | --- |
| B1 | 1.93 nM |
| B2 | 3.1 nM |
| B3 | 3.27 nM |
| B4 | 7.1 nM |
| B5 | 0.52 nM |
| B6 | 4.9 nM |
| B7 | 4 nM |
| B8 | 6.3 nM |
| B9 | 4.7 nM |
| B10 | 7.7 nM |
| B11 | 3 nM |

Target: T1, CD71 on SK-BR-3 cells
Test: cell-based or functional assay
Remark: another data set of the same source

| Binder | IC50, SK-BR3 viability, MMAF conjugate, no competitor | IC50, SK-BR3 viability, MMAF conjugate, with 0.6 uM holo-human transferrin |
| --- | --- | --- |
| B3 | 4.4 nM | ~200 nM |
| B5 | 1.2 nM | 31.1 nM |
| B9 | 0.01 nM | 0.5 nM |
| B11 | 2.2 nM | ~100 nM |

Target: T2, recombinant biotinylated CD71 extracellular domain (Sino Biologics) with an N-terminal 6His tag (human, UniProt P02786 89-760, biotinylated (sites not given))
T2 construct: extracellular domain; also called hCD71; huCD71
Test: screening ELISA, ratio
Protocol: (§1) To screen for FN3 domains that specifically bind CD71, streptavidin-coated Maxisorp plates (Nunc catalog 436110) were blocked for 1 hour in Starting Block T20 (Pierce) and then coated with biotinylated CD71 (using same antigen as in panning) or negative controls (an unrelated Fc-fused recombinant protein and human serum albumin) for 1 hour. Plates were rinsed with TBST and diluted lysate was applied to plates for 1 hour. Following additional rinses, wells were treated with HRP-conjugated anti-V5 tag antibody (Abcam, ab1325), for 1 hour and then assayed with POD (Roche, 11582950001).

T2 sequence (P02786 other isoform, or with tags, fused parts or gaps): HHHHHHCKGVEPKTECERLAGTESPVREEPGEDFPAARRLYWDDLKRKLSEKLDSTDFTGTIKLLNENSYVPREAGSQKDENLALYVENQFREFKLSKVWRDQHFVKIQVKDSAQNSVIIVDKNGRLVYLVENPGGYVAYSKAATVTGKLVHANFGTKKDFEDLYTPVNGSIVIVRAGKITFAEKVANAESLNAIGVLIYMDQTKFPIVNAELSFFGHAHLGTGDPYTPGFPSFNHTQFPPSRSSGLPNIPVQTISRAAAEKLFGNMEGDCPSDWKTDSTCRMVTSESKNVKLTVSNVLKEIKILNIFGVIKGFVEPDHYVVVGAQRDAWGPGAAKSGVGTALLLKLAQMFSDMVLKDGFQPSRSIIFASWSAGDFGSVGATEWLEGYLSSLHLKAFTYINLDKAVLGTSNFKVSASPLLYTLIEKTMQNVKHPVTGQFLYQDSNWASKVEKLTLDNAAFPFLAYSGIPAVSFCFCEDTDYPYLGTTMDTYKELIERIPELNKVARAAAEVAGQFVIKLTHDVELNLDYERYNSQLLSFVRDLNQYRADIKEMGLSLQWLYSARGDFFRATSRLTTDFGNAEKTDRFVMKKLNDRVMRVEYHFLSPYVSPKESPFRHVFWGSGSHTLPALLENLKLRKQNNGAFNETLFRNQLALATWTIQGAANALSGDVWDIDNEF

| huCD71/Fc | Binder |
| --- | --- |
| 461 | B1 |
| 4490 | B2 |
| 46.6 | B3 |
| 535 | B4 |
| 122 | B5 |
| 2290 | B6 |
| 608 | B7 |
| 5750 | B8 |
| 423 | B9 |
| 62.9 | B10 |
| 74.4 | B11 |

Target: T2, recombinant biotinylated CD71 …
Test: screening ELISA
Protocol: as §1

| hCD71 | Binder |
| --- | --- |
| 4.9e+06 | B1 |
| 1.08e+07 | B2 |
| 518000 | B3 |
| 3.3e+06 | B4 |
| 507000 | B5 |
| 9.71e+06 | B6 |
| 1.95e+06 | B7 |
| 1.01e+07 | B8 |
| 4.27e+06 | B9 |
| 302000 | B10 |
| 220000 | B11 |
